{
  "source": "paper PMC13071878",
  "about": "“Yeast Display Technology Enables Rapid Discovery of Low-Nanomolar Macrocyclic Peptide Inhibitors of Human Angiotensin-Converting Enzyme 2” (Journal of Medicinal Chemistry, 2026)",
  "key": {"[1]": {"biological_target": "human angiotensin-converting enzyme 1 (hACE1) (human) (UniProt P12821)", "sequence (P12821 30-1256)": "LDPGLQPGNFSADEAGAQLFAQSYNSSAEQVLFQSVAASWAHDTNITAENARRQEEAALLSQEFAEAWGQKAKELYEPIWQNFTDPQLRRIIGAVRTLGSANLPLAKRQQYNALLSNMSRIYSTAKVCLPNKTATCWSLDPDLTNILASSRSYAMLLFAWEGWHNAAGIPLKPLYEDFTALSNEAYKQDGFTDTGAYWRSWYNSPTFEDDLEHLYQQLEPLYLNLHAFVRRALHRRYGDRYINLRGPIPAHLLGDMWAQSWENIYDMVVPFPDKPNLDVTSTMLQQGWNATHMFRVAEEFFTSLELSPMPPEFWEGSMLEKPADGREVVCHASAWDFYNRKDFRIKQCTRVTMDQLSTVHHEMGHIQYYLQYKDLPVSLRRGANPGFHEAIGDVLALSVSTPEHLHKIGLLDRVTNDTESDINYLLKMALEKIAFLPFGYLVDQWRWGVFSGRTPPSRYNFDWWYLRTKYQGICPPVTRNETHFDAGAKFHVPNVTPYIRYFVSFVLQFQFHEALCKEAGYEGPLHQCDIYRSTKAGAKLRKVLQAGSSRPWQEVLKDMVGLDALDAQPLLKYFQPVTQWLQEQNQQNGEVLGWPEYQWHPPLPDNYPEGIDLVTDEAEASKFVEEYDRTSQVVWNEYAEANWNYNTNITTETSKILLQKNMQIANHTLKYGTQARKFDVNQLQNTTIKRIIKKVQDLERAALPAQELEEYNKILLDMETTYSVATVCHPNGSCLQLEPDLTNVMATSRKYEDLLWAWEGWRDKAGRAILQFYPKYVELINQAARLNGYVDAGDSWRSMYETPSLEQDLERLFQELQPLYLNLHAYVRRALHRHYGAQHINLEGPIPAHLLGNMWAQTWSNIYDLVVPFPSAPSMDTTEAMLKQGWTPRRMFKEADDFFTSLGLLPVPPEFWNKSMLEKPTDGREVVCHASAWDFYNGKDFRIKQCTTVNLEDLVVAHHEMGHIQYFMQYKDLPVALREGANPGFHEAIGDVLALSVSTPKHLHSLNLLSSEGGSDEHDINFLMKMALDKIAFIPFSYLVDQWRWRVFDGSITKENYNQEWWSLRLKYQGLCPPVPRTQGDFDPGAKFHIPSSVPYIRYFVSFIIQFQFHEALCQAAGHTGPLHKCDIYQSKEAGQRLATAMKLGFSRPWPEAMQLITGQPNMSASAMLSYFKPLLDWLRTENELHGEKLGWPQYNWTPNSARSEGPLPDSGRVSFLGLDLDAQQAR", "experiment": "enzyme inhibition assay"}, "[2]": {"biological_target": "extracellular catalytic domain of human angiotensin-converting enzyme 2 (hACE2), produced in mammalian cells (human) (UniProt Q9BYF1)", "sequence (Q9BYF1 19-615)": "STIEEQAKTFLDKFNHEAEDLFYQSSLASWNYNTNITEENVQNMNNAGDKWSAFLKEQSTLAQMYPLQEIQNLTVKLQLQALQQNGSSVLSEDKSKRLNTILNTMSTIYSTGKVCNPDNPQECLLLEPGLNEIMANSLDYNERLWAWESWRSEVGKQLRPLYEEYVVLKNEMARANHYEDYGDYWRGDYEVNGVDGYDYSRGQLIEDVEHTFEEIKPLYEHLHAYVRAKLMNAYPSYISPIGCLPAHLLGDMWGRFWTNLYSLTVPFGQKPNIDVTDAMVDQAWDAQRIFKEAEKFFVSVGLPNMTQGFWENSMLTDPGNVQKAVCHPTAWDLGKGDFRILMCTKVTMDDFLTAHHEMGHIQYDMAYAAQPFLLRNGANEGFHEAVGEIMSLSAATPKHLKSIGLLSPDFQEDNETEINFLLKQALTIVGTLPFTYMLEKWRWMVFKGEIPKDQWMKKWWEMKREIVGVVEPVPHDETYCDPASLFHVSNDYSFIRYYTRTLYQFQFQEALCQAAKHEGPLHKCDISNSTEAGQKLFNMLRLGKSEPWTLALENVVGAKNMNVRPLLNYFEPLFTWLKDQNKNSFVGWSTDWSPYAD", "experiment": "enzyme inhibition assay"}},
  "data": [
    {"substance": "A0773, commercially available inhibitor (peptide)", "values": [
      {"measurement": "IC50", "setting": "[1]", "value": 212, "unit": "nM"},
      {"measurement": "Ki", "setting": "[1]", "value": 53, "unit": "nM"},
      {"measurement": "IC50", "setting": "[2]", "value": "> 30000", "unit": "nM"},
      {"measurement": "Ki", "setting": "[2]", "value": "> 30000", "unit": "nM"}
    ]}
  ]
}
